Data published in paper PMC10950897, “VCF1 is a p97/VCP cofactor promoting recognition of ubiquitylated p97-UFD1-NPL4 substrates” (Nature Communications, 2024).

How the values were obtained:
[1] = tested on: Ub(G76V)-GFP-NES, U2OS cells; test: Imaging of Ub(G76V)-GFP-NES after siRNA or p97 inhibitor; format: cell-based, human; details: siRNA 20 nM or p97i (NMS-873) 2 h
Method: (§1) U2OS (catalog no. HTB-96) cells were obtained from ATCC. HEK293-EBNA1-6E cells were a kind gift from Yves Durocher (National Research Council Canada, Montreal, Canada). All mammalian cell lines were cultured under standard conditions at 37 °C and 5% CO2 in DMEM (Thermo) supplemented with 10% FBS (v/v) and penicillin-streptomycin (Thermo). Recombination cloning-compatible U2OS cells were generated using the Flp-In T-Rex Core Kit (Thermo) according to the manufacturer’s instructions and maintained under selection using Blasticidin (Invivogen) and Zeocin (Thermo). To generate cell lines stably expressing GFP-VCF1, U2OS Flp-In T-Rex cells (Thermo) were co-transfected with GFP-VCF1 constructs and pOG44 (Thermo) plasmids, followed by selection with Hygromycin (Invitrogen). Single clones were carefully screened for uniform expression of ectopic GFP-VCF1 at low levels and maintained under selection with Blasticidin and Hygromycin. To induce GFP-VCF1 expression, cells were treated with Doxycycline (DOX) (0.5 µg/ml) for 16 h. U2OS cell lines stably expressing Ub(G76V)-GFP or Ub(G76V)-GFP-20AA were described previously. A U2OS cell line stably expressing Ub(G76V)-GFP-NES was generated under G418 (Invivogen) selection. […]
(§2) Mammalian cells grown on coverslips were fixed in formalin buffer (VWR) for 15 min at room temperature (RT). […] Quantitative image-based cytometry (QIBC) was performed as described. […]

[2] = tested on: p97; test: GFP IP of GFP-VCF1 alanine mutants from U2OS cells; format: binding, human; details: full-length GFP-VCF1, U2OS
Method: (§3) Immunoblotting was performed as previously described. Immunoprecipitation (IP) of HA-tagged proteins was performed using Anti-HA Affinity matrix (Roche) under denaturing conditions, unless otherwise stated. GFP-trap and […] Fab-trap agarose (Chromotek) were used according to manufacturer’s instructions. Cell lysis was performed using RIPA buffer (140 mM NaCl; 10 mM Tris-HCl, pH 8.0; 0.1% sodium deoxycholate; 1% Triton X-100; 0.1% SDS; 1 mM EDTA; 0.5 mM EGTA) or EBC buffer (50 mM Tris, pH 7.5; 150 mM NaCl; 1 mM EDTA; 0.5% NP-40, 1 mM DTT). IPs were washed in non-denaturing buffer (50 mM Tris-HCl, pH 7.5; 150 mM NaCl; 0.5 mM EDTA). Cell lysis and IP under partially denaturing conditions were performed using denaturing buffer (20 mM Tris-HCl, pH 7.5; 50 mM NaCl; 0.5% sodium deoxycholate; 0.5% NP-40; 0.5% SDS; 1 mM EDTA). All lysis and wash buffers were supplemented with 1 mM fresh PMSF Protease Inhibitor (Thermo), complete EDTA-free protease inhibitor Cocktail Tablets (Roche), 1.25 mM N-ethylmaleimide (Sigma) and 50 µM PR-619 (Calbiochem).

[3] = molecular target: T1, p97 (His6-p97 WT) (Homo sapiens, UniProt P55072); test: SPR: binding to immobilized His6-p97 WT; details: N167A mutants; in vitro binding experiments and SPR, up to 300 nM (peptides) or 100 nM (full-length)
T1 construct: Coomassie Blue staining of full-length and truncated His6-p97 proteins purified from E; made in house; host or cells: E. coli BL21(DE3)
Method: Surface Plasmon Resonance (SPR)
All SPR experiments were performed at 25 °C on a Biacore T200 instrument equipped with CM5 or CM7 sensor chips (Cytiva, Uppsala, Sweden). SPR running buffers and amine-coupling reagents (N-ethyl-N’-(3-dimethlyaminoproply)carbodiimide (EDC), N-hydroxysuccinimide (NHS), and ethanolamine HCl) were purchased from Cytiva. 1x PBS-P (11.9 mM NaH2PO4-Na2HPO4, pH 7.4; 137 mM NaCl; 2.7 mM KCl; 0.005% surfactant P20) supplemented with 0.5 mM TCEP was used as running buffer for the immobilization and the binding experiments with Strep-HA-VCF1 full-length proteins. For the VCF1 C-terminal peptide binding studies, 2% DMSO was additionally included in the running buffer. Eight solvent correction samples ranging from 1.5% DMSO to 2.8% DMSO prepared in either PBS-P, 0.5 mM TCEP or Tris-based buffer were used to correct buffer/DMSO mismatches. The CM5 chip was used for the kinetic analysis of the interactions between p97 proteins and VCF1 full-length proteins or VCF1 C-terminal peptides. p97 was immobilized at different densities on the carboxymethyl dextran sensor chip surface by amine-coupling chemistry. For kinetic analysis, p97 was immobilized at low density (~400 RU) on flow cells 2 (Fc2) and 3 (Fc3), respectively, of a CM5 chip. […] The dissociation rate of the p97-VCF1 complexes was monitored for 400 s. […] Binding experiments were measured in triplicates. […]

[4] = tested on: GFP-VCF1 WT / N167A interactome, U2OS cells; test: GFP IP mass spectrometry, comparison of VCF1 WT and N167A interactomes (WT/N167A); format: binding, human; details: stably expressed GFP-VCF1, MS interactome
Method: U2OS (catalog no. HTB-96) cells were obtained from ATCC. HEK293-EBNA1-6E cells were a kind gift from Yves Durocher (National Research Council Canada, Montreal, Canada). All mammalian cell lines were cultured under standard conditions at 37 °C and 5% CO2 in DMEM (Thermo) supplemented with 10% FBS (v/v) and penicillin-streptomycin (Thermo). Recombination cloning-compatible U2OS cells were generated using the Flp-In T-Rex Core Kit (Thermo) according to the manufacturer’s instructions and maintained under selection using Blasticidin (Invivogen) and Zeocin (Thermo). To generate cell lines stably expressing GFP-VCF1, U2OS Flp-In T-Rex cells (Thermo) were co-transfected with GFP-VCF1 constructs and pOG44 (Thermo) plasmids, followed by selection with Hygromycin (Invitrogen). Single clones were carefully screened for uniform expression of ectopic GFP-VCF1 at low levels and maintained under selection with Blasticidin and Hygromycin. To induce GFP-VCF1 expression, cells were treated with Doxycycline (DOX) (0.5 µg/ml) for 16 h. U2OS cell lines stably expressing Ub(G76V)-GFP or Ub(G76V)-GFP-20AA were described previously. A U2OS cell line stably expressing Ub(G76V)-GFP-NES was generated under G418 (Invivogen) selection. Clones with low baseline GFP expression were visually screened for low basal GFP expression. All cell lines used in this study were regularly tested negative for mycoplasma infection and were not authenticated.
as §3
GFP-Trap agarose (Chromotek) pulldowns were subjected to partial on-bead digestion for peptide elution, by addition of 100 µl of elution buffer (50 mM Tris, pH 7.5; 2 M urea; 2 mM DTT; 20 µg/ml trypsin) and incubation at 37 °C for 30 min. To carry out alkylation, 25 mM CAA was added to the samples, which were then left to digest overnight at room temperature. Digestion was halted by introducing 1% TFA. Purification and desalting of peptides were done using SDB-RPS StageTips. This process required preparing two layers of SDB-RPS with 100 µl of wash buffer (0.2% TFA in H2O), onto which the peptides were loaded. After centrifugation for 5 min at 500 × g, peptides were washed using 150 µl wash buffer, eluted with 50 µl elution buffer (80% ACN; 1% ammonia) and vacuum-dried.
Liquid chromatography-mass spectrometry (LC-MS) analysis was conducted using an EASY-nLC-1200 system (Thermo Fisher Scientific), coupled with a timsTOF Pro spectrometer and a nano-electrospray ion source (Bruker Daltonik). […]

[5] = tested on: p97 ATPase; test: ATPase assay; format: biochemical, human; details: p97 25 nM, ATP 375 μM
Method: For ATPase assays, 1 ml of 5x assay buffer (250 mM Tris, pH 7.4; 100 mM MgCl2; 5 mM EDTA) was mixed with 3 ml water, 5 μl 0.5 M TCEP and 5 μl 10% Triton X. To 40 ul of this assay buffer, recombinant proteins were added, mixed and incubated for 30 min. Final protein concentrations were as follows: p97 (25 nM), VCF1 (range of 0, 0.025, 1, 10 and 25 nM). The reactions were started by adding 10 μl ATP (final concentration of 375 μM) to the 40 μl reactions in a 96 well plate. After 35 min at room temperature, reactions were stopped by adding 50 μl BIOMOL Green reagent (Enzo Life Sciences). Absorbance at 635 nm was measured after 4 min and the relative ATPase activity calculated. Reactions were performed in duplicates and repeated three times.

[6] = tested on: p97-UFD1-NPL4 binding to K48-Ub2-7; test: FLAG IP: p97-UFD1-NPL4 binding to K48-linked ubiquitin chains, purified proteins; format: biochemical, human; details: high protein amounts, mild buffer
Method: All in vitro binding experiments were performed in EBC or RIPA buffer as indicated. Recombinant Biotin-tagged K48-linked poly-ubiquitin chains (2−7) and K48-linked poly-ubiquitin chains (2−16) were purchased from R&D Systems and Enzo Life Science, respectively. Recombinant proteins were incubated with Strep-Tactin Sepharose (IBA), Glutathione agarose (Gold Biotechnology) or […] Fab-trap agarose (ChromoTek) overnight on an end-over-end rotator at 4 °C, washed six times with EBC or RIPA buffer, and resuspended in 2×Laemmli sample buffer. For p97, VCF1 or p47 pulldowns, antibodies (0.5 µg/sample) were coupled to agarose beads, incubated with recombinant proteins or cell lysates and washed with the indicated buffer. To assess p97-UFD1-NPL4 binding to ubiquitylated proteins in total cell extracts, U2OS cells were lysed in EBC buffer supplemented with protease and phosphatase inhibitors, sonicated and incubated on ice for 10 min. Lysates were cleared by centrifugation for 10 min at 16,100 × g. Cell lysate (40 µg) was added to recombinant proteins in EBC buffer, incubated overnight on the rotator with […] Fab-trap agarose (ChromoTek), and beads were washed six times.

[7] = tested on: Ub(G76V)-GFP, U2OS cells; test: QIBC of Ub(G76V)-GFP after siRNA; format: cell-based, human; details: siRNA 20 nM, QIBC >10,000 cells
Method: as §1, §2

[8] = tested on: NPL4, U2OS/Ub(G76V)-GFP cells; test: Immunoblot of siRNA knockdown efficiency; format: cell-based, human
Method: All siRNAs (Sigma) were used at 20 nM and transfected with Lipofectamine RNAiMAX reagent (Thermo) according to manufacturer’s instructions. The following siRNA oligonucleotides were used: Non-targeting control (CTRL): 5′-[…]-3′; VCF1(#1): 5’-[…]-3’; VCF1(#2): 5’-[…]-3’; p47: 5’-[…]-3’; NPL4: 5’-[…]-3’; FAF1: 5′-[…]-3′; p97: Dharmacon SmartPool (D-008727).
as §3, with “All lysis and wash buffers were supplemented with 1 mM fresh PMSF Protease Inhibitor (Thermo), complete EDTA-free protease inhibitor Cocktail Tablets (Roche), 1.25 mM N-ethylmaleimide (Sigma) and 50 µM PR-619 (Calbiochem).” left out

T1 sequence (P55072 whole entry, the tested form may be a part): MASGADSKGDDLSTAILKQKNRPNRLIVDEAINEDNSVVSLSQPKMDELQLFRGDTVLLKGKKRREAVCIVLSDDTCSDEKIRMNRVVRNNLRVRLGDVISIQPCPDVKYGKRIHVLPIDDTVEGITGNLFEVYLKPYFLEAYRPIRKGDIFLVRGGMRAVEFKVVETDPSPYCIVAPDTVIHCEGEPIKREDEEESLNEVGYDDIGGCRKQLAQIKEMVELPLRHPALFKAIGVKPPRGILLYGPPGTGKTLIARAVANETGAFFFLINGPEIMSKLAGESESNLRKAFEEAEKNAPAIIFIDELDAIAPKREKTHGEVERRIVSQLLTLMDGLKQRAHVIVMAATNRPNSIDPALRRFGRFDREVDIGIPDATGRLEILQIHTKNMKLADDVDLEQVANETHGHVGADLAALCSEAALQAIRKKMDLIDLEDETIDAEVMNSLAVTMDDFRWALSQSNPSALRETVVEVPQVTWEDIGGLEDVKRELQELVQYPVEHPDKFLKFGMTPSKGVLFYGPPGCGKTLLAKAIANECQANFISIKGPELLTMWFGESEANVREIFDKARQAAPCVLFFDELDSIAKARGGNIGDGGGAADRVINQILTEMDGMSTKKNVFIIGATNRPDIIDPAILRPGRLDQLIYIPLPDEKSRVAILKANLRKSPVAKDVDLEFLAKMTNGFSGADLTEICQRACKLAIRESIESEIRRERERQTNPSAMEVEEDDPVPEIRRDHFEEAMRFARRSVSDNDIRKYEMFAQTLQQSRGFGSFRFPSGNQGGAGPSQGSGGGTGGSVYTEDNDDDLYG

Cc1cc(OCc2nnc(SC3CCCC3)n2-c2cccnc2)ccc1-c1ccc(S(C)(=O)=O)cc1 [NMS-873]
effect on Ub(G76V)-GFP-NES [1]: strong Ub(G76V)-GFP-NES accumulation

VCF1 N167A: full-length VCF1 with N167A point mutation in VRM
effect of alanine scan on p97 binding [2]: essential for VCF1 binding to p97
binding to p97 WT (in words) [3]: abrogated binding to p97
p97 binding of N167A vs WT [4]: strong loss of p97 binding
relative ATPase activity ([5]; 0.025 nM, replicate 1): 1.034
relative ATPase activity ([5]; 0.025 nM, replicate 2): 0.974
relative ATPase activity ([5]; 0.025 nM, replicate 3): 1.059
relative ATPase activity ([5]; 1 nM, replicate 1): 1.009
relative ATPase activity ([5]; 1 nM, replicate 2): 1.013
relative ATPase activity ([5]; 1 nM, replicate 3): 1.024
relative ATPase activity ([5]; 10 nM, replicate 1): 1.046
relative ATPase activity ([5]; 10 nM, replicate 2): 0.967
relative ATPase activity ([5]; 10 nM, replicate 3): 0.99
residual binding of N167A mutant to p97 [6]: very weak residual binding to p97

5’-CACGCCUAAUCCUGUUGACAA-3’ [NPL4 siRNA]
effect on Ub(G76V)-GFP level [7]: increased Ub(G76V)-GFP abundance as expected
reduction in NPL4 abundance [8]: ~ 50%
